# Test results as given in patent publication US20230235013A1 (MABSOLVE, published 2023).
# Target: T1, Histidine-tagged recombinant human FcγRI (CD64) (human, UniProt P12314 16-288)
# T1 construct: bought; also called Sino Biological Cat. No. 12056-H08H
# Test: SPR, culture supernatant, captured His-FcγRI;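 further: biacore T200 SPR at 25 °C, anti-His capture, supernatants of HEK293 cells expressing IgG1 Fc variants injected 1 min, reference-subtracted response read 55 s after injection start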
row,Mean binding response [RU],Binder
1,24,"anti-CD20 human IgG1 L234T/L235E/G236R (antibody, copies: 2 + 2) heavy: QVQLQQPGAELVKPGASVKMSCKASGYTFTSYNMHWVKQTPGRGLEWIGAIYPGNGDTSYNQKFKGKATLTADKSSSTAYMQLSSLTSEDSAVYYCARSTYYGGDWYFNVWGAGTTVTVSSASTKGPSVFPLAPSSKSTSGGTAALGCLVKDYFPEPVTVSWNSGALTSGVHTFPAVLQSSGLYSLSSVVTVPSSSLGTQTYICNVNHKPSNTKVDKKVEPKSCDKTHTCPPCPAPETERGPSVFLFPPKPKDTLMISRTPEVTCVVVDVSHEDPEVKFNWYVDGVEVHNAKTKPREEQYNSTYRVVSVLTVLHQDWLNGKEYKCKVSNKALPAPIEKTISKAKGQPREPQVYTLPPSRDELTKNQVSLTCLVKGFYPSDIAVEWESNGQPENNYKTTPPVLDSDGSFFLYSKLTVDKSRWQQGNVFSCSVMHEALHNHYTQKSLSLSPGK light: QIVLSQSPAILSASPGEKVTMTCRASSSVSYIHWFQQKPGSSPKPWIYATSNLASGVPVRFSGSGSGTSYSLTISRVEAEDAATYYCQQWTSNPPTFGGGTKLEIKRTVAAPSVFIFPPSDEQLKSGTASVVCLLNNFYPREAKVQWKVDNALQSGNSQESVTEQDSKDSTYSLSSTLTLSKADYEKHKVYACEVTHQGLSSPVTKSFNRGEC"
2,31.6,"anti-CD20 human IgG1 L234T/L235M/G236R (antibody, also called 1-160; copies: 2 + 2) heavy: QVQLQQPGAELVKPGASVKMSCKASGYTFTSYNMHWVKQTPGRGLEWIGAIYPGNGDTSYNQKFKGKATLTADKSSSTAYMQLSSLTSEDSAVYYCARSTYYGGDWYFNVWGAGTTVTVSSASTKGPSVFPLAPSSKSTSGGTAALGCLVKDYFPEPVTVSWNSGALTSGVHTFPAVLQSSGLYSLSSVVTVPSSSLGTQTYICNVNHKPSNTKVDKKVEPKSCDKTHTCPPCPAPETMRGPSVFLFPPKPKDTLMISRTPEVTCVVVDVSHEDPEVKFNWYVDGVEVHNAKTKPREEQYNSTYRVVSVLTVLHQDWLNGKEYKCKVSNKALPAPIEKTISKAKGQPREPQVYTLPPSRDELTKNQVSLTCLVKGFYPSDIAVEWESNGQPENNYKTTPPVLDSDGSFFLYSKLTVDKSRWQQGNVFSCSVMHEALHNHYTQKSLSLSPGK light: QIVLSQSPAILSASPGEKVTMTCRASSSVSYIHWFQQKPGSSPKPWIYATSNLASGVPVRFSGSGSGTSYSLTISRVEAEDAATYYCQQWTSNPPTFGGGTKLEIKRTVAAPSVFIFPPSDEQLKSGTASVVCLLNNFYPREAKVQWKVDNALQSGNSQESVTEQDSKDSTYSLSSTLTLSKADYEKHKVYACEVTHQGLSSPVTKSFNRGEC"
3,13.6,"anti-CD20 human IgG1 L234T/L235R/G236R (antibody, also called 2-61; copies: 2 + 2) heavy: QVQLQQPGAELVKPGASVKMSCKASGYTFTSYNMHWVKQTPGRGLEWIGAIYPGNGDTSYNQKFKGKATLTADKSSSTAYMQLSSLTSEDSAVYYCARSTYYGGDWYFNVWGAGTTVTVSSASTKGPSVFPLAPSSKSTSGGTAALGCLVKDYFPEPVTVSWNSGALTSGVHTFPAVLQSSGLYSLSSVVTVPSSSLGTQTYICNVNHKPSNTKVDKKVEPKSCDKTHTCPPCPAPETRRGPSVFLFPPKPKDTLMISRTPEVTCVVVDVSHEDPEVKFNWYVDGVEVHNAKTKPREEQYNSTYRVVSVLTVLHQDWLNGKEYKCKVSNKALPAPIEKTISKAKGQPREPQVYTLPPSRDELTKNQVSLTCLVKGFYPSDIAVEWESNGQPENNYKTTPPVLDSDGSFFLYSKLTVDKSRWQQGNVFSCSVMHEALHNHYTQKSLSLSPGK light: QIVLSQSPAILSASPGEKVTMTCRASSSVSYIHWFQQKPGSSPKPWIYATSNLASGVPVRFSGSGSGTSYSLTISRVEAEDAATYYCQQWTSNPPTFGGGTKLEIKRTVAAPSVFIFPPSDEQLKSGTASVVCLLNNFYPREAKVQWKVDNALQSGNSQESVTEQDSKDSTYSLSSTLTLSKADYEKHKVYACEVTHQGLSSPVTKSFNRGEC"
4,65,"anti-CD20 human IgG1 L234A/L235A (LALA) (antibody, also called 10.16; copies: 2 + 2) heavy: not shown light: QIVLSQSPAILSASPGEKVTMTCRASSSVSYIHWFQQKPGSSPKPWIYATSNLASGVPVRFSGSGSGTSYSLTISRVEAEDAATYYCQQWTSNPPTFGGGTKLEIKRTVAAPSVFIFPPSDEQLKSGTASVVCLLNNFYPREAKVQWKVDNALQSGNSQESVTEQDSKDSTYSLSSTLTLSKADYEKHKVYACEVTHQGLSSPVTKSFNRGEC"
5,20.9,"anti-CD20 human IgG1 L234D/L235K/G236R (antibody, also called 1-23; 2-7; copies: 2 + 2) heavy: QVQLQQPGAELVKPGASVKMSCKASGYTFTSYNMHWVKQTPGRGLEWIGAIYPGNGDTSYNQKFKGKATLTADKSSSTAYMQLSSLTSEDSAVYYCARSTYYGGDWYFNVWGAGTTVTVSSASTKGPSVFPLAPSSKSTSGGTAALGCLVKDYFPEPVTVSWNSGALTSGVHTFPAVLQSSGLYSLSSVVTVPSSSLGTQTYICNVNHKPSNTKVDKKVEPKSCDKTHTCPPCPAPEDKRGPSVFLFPPKPKDTLMISRTPEVTCVVVDVSHEDPEVKFNWYVDGVEVHNAKTKPREEQYNSTYRVVSVLTVLHQDWLNGKEYKCKVSNKALPAPIEKTISKAKGQPREPQVYTLPPSRDELTKNQVSLTCLVKGFYPSDIAVEWESNGQPENNYKTTPPVLDSDGSFFLYSKLTVDKSRWQQGNVFSCSVMHEALHNHYTQKSLSLSPGK light: QIVLSQSPAILSASPGEKVTMTCRASSSVSYIHWFQQKPGSSPKPWIYATSNLASGVPVRFSGSGSGTSYSLTISRVEAEDAATYYCQQWTSNPPTFGGGTKLEIKRTVAAPSVFIFPPSDEQLKSGTASVVCLLNNFYPREAKVQWKVDNALQSGNSQESVTEQDSKDSTYSLSSTLTLSKADYEKHKVYACEVTHQGLSSPVTKSFNRGEC"
6,22.4,"anti-CD20 human IgG1 L234T/L235N/G236R (antibody, copies: 2 + 2) heavy: QVQLQQPGAELVKPGASVKMSCKASGYTFTSYNMHWVKQTPGRGLEWIGAIYPGNGDTSYNQKFKGKATLTADKSSSTAYMQLSSLTSEDSAVYYCARSTYYGGDWYFNVWGAGTTVTVSSASTKGPSVFPLAPSSKSTSGGTAALGCLVKDYFPEPVTVSWNSGALTSGVHTFPAVLQSSGLYSLSSVVTVPSSSLGTQTYICNVNHKPSNTKVDKKVEPKSCDKTHTCPPCPAPETNRGPSVFLFPPKPKDTLMISRTPEVTCVVVDVSHEDPEVKFNWYVDGVEVHNAKTKPREEQYNSTYRVVSVLTVLHQDWLNGKEYKCKVSNKALPAPIEKTISKAKGQPREPQVYTLPPSRDELTKNQVSLTCLVKGFYPSDIAVEWESNGQPENNYKTTPPVLDSDGSFFLYSKLTVDKSRWQQGNVFSCSVMHEALHNHYTQKSLSLSPGK light: QIVLSQSPAILSASPGEKVTMTCRASSSVSYIHWFQQKPGSSPKPWIYATSNLASGVPVRFSGSGSGTSYSLTISRVEAEDAATYYCQQWTSNPPTFGGGTKLEIKRTVAAPSVFIFPPSDEQLKSGTASVVCLLNNFYPREAKVQWKVDNALQSGNSQESVTEQDSKDSTYSLSSTLTLSKADYEKHKVYACEVTHQGLSSPVTKSFNRGEC"
7,16.1,"anti-CD20 human IgG1 L234K/L235S/G236R (antibody, also called 1-89; 2-24; copies: 2 + 2) heavy: QVQLQQPGAELVKPGASVKMSCKASGYTFTSYNMHWVKQTPGRGLEWIGAIYPGNGDTSYNQKFKGKATLTADKSSSTAYMQLSSLTSEDSAVYYCARSTYYGGDWYFNVWGAGTTVTVSSASTKGPSVFPLAPSSKSTSGGTAALGCLVKDYFPEPVTVSWNSGALTSGVHTFPAVLQSSGLYSLSSVVTVPSSSLGTQTYICNVNHKPSNTKVDKKVEPKSCDKTHTCPPCPAPEKSRGPSVFLFPPKPKDTLMISRTPEVTCVVVDVSHEDPEVKFNWYVDGVEVHNAKTKPREEQYNSTYRVVSVLTVLHQDWLNGKEYKCKVSNKALPAPIEKTISKAKGQPREPQVYTLPPSRDELTKNQVSLTCLVKGFYPSDIAVEWESNGQPENNYKTTPPVLDSDGSFFLYSKLTVDKSRWQQGNVFSCSVMHEALHNHYTQKSLSLSPGK light: QIVLSQSPAILSASPGEKVTMTCRASSSVSYIHWFQQKPGSSPKPWIYATSNLASGVPVRFSGSGSGTSYSLTISRVEAEDAATYYCQQWTSNPPTFGGGTKLEIKRTVAAPSVFIFPPSDEQLKSGTASVVCLLNNFYPREAKVQWKVDNALQSGNSQESVTEQDSKDSTYSLSSTLTLSKADYEKHKVYACEVTHQGLSSPVTKSFNRGEC"
8,13.9,"anti-CD20 human IgG1 L234K/L235R/G236R (antibody, also called 1-88; 2-23; copies: 2 + 2) heavy: QVQLQQPGAELVKPGASVKMSCKASGYTFTSYNMHWVKQTPGRGLEWIGAIYPGNGDTSYNQKFKGKATLTADKSSSTAYMQLSSLTSEDSAVYYCARSTYYGGDWYFNVWGAGTTVTVSSASTKGPSVFPLAPSSKSTSGGTAALGCLVKDYFPEPVTVSWNSGALTSGVHTFPAVLQSSGLYSLSSVVTVPSSSLGTQTYICNVNHKPSNTKVDKKVEPKSCDKTHTCPPCPAPEKRRGPSVFLFPPKPKDTLMISRTPEVTCVVVDVSHEDPEVKFNWYVDGVEVHNAKTKPREEQYNSTYRVVSVLTVLHQDWLNGKEYKCKVSNKALPAPIEKTISKAKGQPREPQVYTLPPSRDELTKNQVSLTCLVKGFYPSDIAVEWESNGQPENNYKTTPPVLDSDGSFFLYSKLTVDKSRWQQGNVFSCSVMHEALHNHYTQKSLSLSPGK light: QIVLSQSPAILSASPGEKVTMTCRASSSVSYIHWFQQKPGSSPKPWIYATSNLASGVPVRFSGSGSGTSYSLTISRVEAEDAATYYCQQWTSNPPTFGGGTKLEIKRTVAAPSVFIFPPSDEQLKSGTASVVCLLNNFYPREAKVQWKVDNALQSGNSQESVTEQDSKDSTYSLSSTLTLSKADYEKHKVYACEVTHQGLSSPVTKSFNRGEC"
9,26.9,"anti-CD20 human IgG1 L234T/L235G/G236R (antibody, copies: 2 + 2) heavy: QVQLQQPGAELVKPGASVKMSCKASGYTFTSYNMHWVKQTPGRGLEWIGAIYPGNGDTSYNQKFKGKATLTADKSSSTAYMQLSSLTSEDSAVYYCARSTYYGGDWYFNVWGAGTTVTVSSASTKGPSVFPLAPSSKSTSGGTAALGCLVKDYFPEPVTVSWNSGALTSGVHTFPAVLQSSGLYSLSSVVTVPSSSLGTQTYICNVNHKPSNTKVDKKVEPKSCDKTHTCPPCPAPETGRGPSVFLFPPKPKDTLMISRTPEVTCVVVDVSHEDPEVKFNWYVDGVEVHNAKTKPREEQYNSTYRVVSVLTVLHQDWLNGKEYKCKVSNKALPAPIEKTISKAKGQPREPQVYTLPPSRDELTKNQVSLTCLVKGFYPSDIAVEWESNGQPENNYKTTPPVLDSDGSFFLYSKLTVDKSRWQQGNVFSCSVMHEALHNHYTQKSLSLSPGK light: QIVLSQSPAILSASPGEKVTMTCRASSSVSYIHWFQQKPGSSPKPWIYATSNLASGVPVRFSGSGSGTSYSLTISRVEAEDAATYYCQQWTSNPPTFGGGTKLEIKRTVAAPSVFIFPPSDEQLKSGTASVVCLLNNFYPREAKVQWKVDNALQSGNSQESVTEQDSKDSTYSLSSTLTLSKADYEKHKVYACEVTHQGLSSPVTKSFNRGEC"
